Consider seven molecules from US20240124857A1, “COMPOSITION FOR GUT HEALTH” (DUPONT NUTRITION BIOSCIENCES APS, priority 2021, published 2024).

Data set [1] is described as follows: pH profile of enzymes on 1 mM ATP. The data set is classed as biochemical. The following applies: 50 mM trisodium citrate/citric acid, 5 mM CaCl2, relative to the highest value. Here is the method: The pH profile of additional enzymes of interest was assayed using 1 mM ATP, in 50 mM trisodium citrate/citric acid buffer with 5 mM CaCl2. Absorbance was read at 620 nm and all values were set relative to the highest one. Commercial potato apyrase was used as reference. […]

Data set [2] in a line: ATPase activity at 0.05 ppm enzyme on 0.1 mM ATP (absorbance 620 nm). The class given is biochemical. The following applies: for Activity on ATP (absorbance at 620 nm, blank subtracted), pH 5.0: 50 mM IVIES buffer pH 5; for Activity on ATP (absorbance at 620 nm, blank subtracted), pH 6.0: 50 mM IVIES buffer pH 6. Here is the method: Enzyme activity towards ATP or ADP at pH 3 to 9: The ability of candidate enzymes to degrade ATP or ADP to AMP and free phosphate (Pi) was measured using a standard malachite green phosphate detection kit (Sigma Aldrich cat no. MAK307). The enzyme reactions were carried out in 96-well plates with a total volume of 150 μL and contained 250 μM of a substrate, 50 mM of a buffer, 5 mM CaCl2, and a variable concentration of enzyme. The substrate was ATP or ADP. The buffer was glycine (pH 3), acetate (pH 4, 4.5, 5), bis-Tris (pH 5.5, 6, 6.5), or Tris (pH 7, 8, 9). The concentration of enzyme varied from about 1 μg/mL to 1 ng/mL and was adjusted based on the activity of the enzyme so that the amount of phosphate released during the assay was with the dynamic range of the assay (5-100 μM phosphate). The enzyme concentration was determined by the absorbance at 280 nm and using the predicted molecular weight and molar extinction coefficient to calculate the concentration. The enzyme reaction was initiated by the addition of 15 μL enzyme with 135 μL of the other reaction components such that the final reaction composition was as previously described. The reaction was stopped after 5 min by mixing 80 μL of the reaction mixture with 20 μL of the malachite green working reagent. The malachite green working reagent was prepared according to the manufacturer's protocol by mixing 100 parts reagent A with 1 part reagent B. Phosphate standard solutions (0-80 μM) and a negative control reaction without enzyme were also mixed with the malachite green working reagent. All samples were tested in duplicate. The malachite green reaction mixture was allowed to rest at room temperature for 45-60 min and the absorbance at 620 nm was measured. Lastly, the absorbance of the phosphate standards were used to convert the absorbance readings of each sample into phosphate concentrations and the negative control was subtracted from each reaction.
Enzymes of interest were assayed against ATP substrate. The ATPase activity was measured at 0.05 ppm concentration in 50 mM IVIES buffer pH 6 and pH 5 with 0.1 mM ATP as substrate as described in Example 1. Commercial potato apyrase was used as reference. The absorbance at 620 nm was measured and the absorbance of a blank sample (water) was subtracted from each sample.

B1: CRC25082: Acid phosphatase (Class A), accession WP_050460978.1, SEQ ID NO:19 (protein, listed as Herbaspirillum autotrophicum)
chain: KGAAGFLNGQTAPDSLAILPPPPAEDSVAFQADKAQYETGHVLRDPERVEQARQDADYRNFGHAFSAAFGMEISATHTPVLYQLLTEVLQDSHDYAMKAAKNHYKRVRPFVVYKDPTCTPGQDEKMALSGSYPSGHASFGWAAALVLAEINPARQTEILQRGYAFGKSRVICGAHWQSDVDNGQLMGAAVVAALHSNSQFAAALNAAKNEFAGLRAQDNKK
Regarding B1, in data set [1], the “Relative activity on ATP, pH 3” value is listed as 0.0; the “Relative activity on ATP, pH 3.5” value is recorded as 0.0; the “Relative activity on ATP, pH 4” value stood at 0.0; the “Relative activity on ATP, pH 4.5” value worked out at 0.1. Also, in data set [1], the “Relative activity on ATP, pH 5” value is 0.3; the “Relative activity on ATP, pH 5.5” value turned out to be 0.7; the “Relative activity on ATP, pH 6” value was 1.0; the “Relative activity on ATP, pH 6.5” value turned out to be 0.8. For the same molecule, in data set [2], the “Activity on ATP (absorbance at 620 nm, blank subtracted), pH 5.0” value (“Activity on ATP … pH 5.0” below) was 0.93 and the “Activity on ATP (absorbance at 620 nm, blank subtracted), pH 6.0” value (“Activity on ATP … pH 6.0” below) turned out to be 0.65.

B2: CRC25085: Acid phosphatase (Class A), accession WP_092747651.1, SEQ ID NO:21 (protein, listed as Acinetobacter boissieri)
chain: LEQSNSFLQLAQVPDSLAIVPAPPAYNSVDFLRDKAAYDQAKSLVGTERWKVAAEDADLSDANIGKPFSQALGIEISPQNTPITYEILRKLRTDAGNYATKAAKEHYMRLRPFMFFNSHTCTPNDEANLSKNGAYPSGHTTIGWSSALVLAEIRPERQNEILQRGYEYGQSRVICGVHWQSDVDAGRITGSAIVARLHADKAFTKMLEEAKQEIQRKTK
For the molecule B2, in data set [1], the “Relative activity on ATP, pH 3” value is given as 0.5; the “Relative activity on ATP, pH 3.5” value came to 0.6; the “Relative activity on ATP, pH 4” value was found to be 0.8; the “Relative activity on ATP, pH 4.5” value amounted to 0.9. Moreover, in data set [1], the “Relative activity on ATP, pH 5” value is 0.9; the “Relative activity on ATP, pH 5.5” value came out at 1.0; the “Relative activity on ATP, pH 6” value came to 0.8; the “Relative activity on ATP, pH 6.5” value is reported as 0.9. For the same molecule, in data set [2], the “Activity on ATP … pH 5.0” value was determined as 0.23 and the “Activity on ATP … pH 6.0” value was 0.20.

B3: CRC25089: Acid phosphatase (Class A), accession WP_217352265.1, SEQ ID NO:22 (protein, listed as Paraburkholderia bonniea)
chain: AGSDGFLTAETAPSSLAILPPPPAENTVAFLNDKANYEIGRSLKNDARVALAASDANCKNINAIFSSAFGREISEEKTPKLYRLLLGVLQDSHDHAMKSAKNHYMRVRPFVMYGDKTCTPEEDNKMKNTGSYPSGHASFGWAAALVLSEINPERTTEILRRGYDFGQSRVVCGAHWQSDVDNGRLMGAAVVADLHNNDKFIKALEAAKAEFKENTPGN
For B3, in data set [1], the “Relative activity on ATP, pH 3” value came to 0.8; the “Relative activity on ATP, pH 3.5” value came to 1.0; the “Relative activity on ATP, pH 4” value is 0.9; the “Relative activity on ATP, pH 4.5” value is reported as 0.9. Besides, in data set [1], the “Relative activity on ATP, pH 5” value worked out at 0.8; the “Relative activity on ATP, pH 5.5” value amounted to 0.7; the “Relative activity on ATP, pH 6” value is on record as 0.3; the “Relative activity on ATP, pH 6.5” value is 0.2. For the same molecule, in data set [2], the “Activity on ATP … pH 5.0” value turned out to be 0.24 and the “Activity on ATP … pH 6.0” value turned out to be 0.05.

B4: CRC25099: Acid phosphatase (Class A), accession WP_195761705.1, SEQ ID NO:23 (protein, listed as Pantoea sp.)
chain: LQSSGFLTAETAPDSLAILPPPPAENSVTFQSDKAQYEAGHVLRNVARTELASKDADYKNFGQAFSAAFGMEISESHTPVLYHLLSEVLQDSHDFAMRGAKDHYKRVRPFVIYKDSTCTPDKDKSMSTTGSYPSGHASFGWAAALILAEINPSRETEIIRRGYDFGESRVVCGAHWQSDVENGRIMGATVVASLHANAKFAELLSQAKNEFATLSAQDSK
For the molecule B4, in data set [1], the “Relative activity on ATP, pH 3” value was 0.0; the “Relative activity on ATP, pH 3.5” value is listed as 0.1; the “Relative activity on ATP, pH 4” value came to 0.3; the “Relative activity on ATP, pH 4.5” value was found to be 0.7. In data set [1], the “Relative activity on ATP, pH 5” value is 0.8; the “Relative activity on ATP, pH 5.5” value stood at 1.0; the “Relative activity on ATP, pH 6” value is 0.8; the “Relative activity on ATP, pH 6.5” value is 0.5. Besides, in data set [2], the “Activity on ATP … pH 5.0” value amounted to 1.05 and the “Activity on ATP … pH 6.0” value is 0.93.

B5: CRC25084: Acid phosphatase (Class A), accession WP_088823167.1, SEQ ID NO:20 (protein, listed as Acinetobacter apis)
chain: ADSNNSFLQLNQVPDSLKIVPAPPAFNSVDFLRDKAAYDQARSLVGTARWQQAAVDADLSDANIGKSFSEAFGVEISPTNTPVTYEILRKLRTDAGGYATKTAKEHYMRMRPFVFFNSHTCTPNDEASLSKNGAYPSGHTTIGWSSALILAEIRPDRQNEILERGYQYGQSRVICGVHWQSDVDAGRITGSAIVARLHADKDFAKTLEDAKREIQKKIK
As for B5, in data set [1], the “Relative activity on ATP, pH 3” value stood at 0.4; the “Relative activity on ATP, pH 3.5” value turned out to be 0.6; the “Relative activity on ATP, pH 4” value is on record as 0.6; the “Relative activity on ATP, pH 4.5” value is listed as 0.9. Moreover, in data set [1], the “Relative activity on ATP, pH 5” value amounted to 0.9; the “Relative activity on ATP, pH 5.5” value was 1.0; the “Relative activity on ATP, pH 6” value was determined as 1.0; the “Relative activity on ATP, pH 6.5” value is listed as 0.9. In data set [2], the “Activity on ATP … pH 5.0” value is listed as 0.20 and the “Activity on ATP … pH 6.0” value is 0.17.

B6: CRC25100: Acid phosphatase (Class A), internal database, SEQ ID NO:24 (protein)
chain: GENSGFLSPETSPNSLEILPPPPSEGSIAFLNDKANYDIGHTLKNEGRLAQAVSDANYKNLTDAFSKAFGETISEQNTPALYSLLQNVLQDSHDFAMRAAKDHYKRVRPFVIYKDHTCTPAEDTKMAKTGSYPSGHASFGWATALVLSEINPARETEILKRGYEFGQSRVICGAHWQSDVDSGRIMGAAVVASLHNNSDFISALAKAKEEFRKK
modifications: environmental sample
As to B6, in data set [1], the “Relative activity on ATP, pH 3” value is 0.0; the “Relative activity on ATP, pH 3.5” value is given as 0.0; the “Relative activity on ATP, pH 4” value turned out to be 0.1; the “Relative activity on ATP, pH 4.5” value is 0.4. Also, in data set [1], the “Relative activity on ATP, pH 5” value stood at 0.8; the “Relative activity on ATP, pH 5.5” value turned out to be 1.0; the “Relative activity on ATP, pH 6” value was found to be 1.0; the “Relative activity on ATP, pH 6.5” value was 0.7. In addition, in data set [2], the “Activity on ATP … pH 5.0” value is given as 1.11 and the “Activity on ATP … pH 6.0” value was 0.90.

B7: CRC22104: GDA1/CD39 family enzyme, accession TAL58835.1, SEQ ID NO:7 (protein, listed as Legionella sp.)
chain: IEQDPCQEKQCMIVVDAGSTGSRLHFYTYDTDETNSPINIEEIWSKRIKPGISHVEANRSSIDAYLVTLLAGTPHSNHVPVYFYATAGMRLLPAAKQKLIYQEIKFWFAQQNQWRLMDAKTIYGSQEALYDWLAVNHQLGTLQSVQTKSVGVMDMGGASVQIVFPVQNNPDLKNNTLAEFNLYGQHIRLAVRSFLGLGQTEMSHQFLNYAPCFANNYPLPDGFLGEGDALSCVEEVASLMNGVHSVNKEIQPLLAANPVNIWYAIGGLSFLADNSVIHFNNYQLTNEQLLQQVDSKICHQEWDVLDEQFPNEEYLYQFCLLSAYYYALMVEGYGLLPNETINYLPSSQNLDWTIGVVLYPRLTVLQ
As for B7, in data set [1], the “Relative activity on ATP, pH 3” value is given as 0.0; the “Relative activity on ATP, pH 3.5” value came out at 0.0; the “Relative activity on ATP, pH 4” value is 0.0; the “Relative activity on ATP, pH 4.5” value was determined as 0.3. In data set [1], the “Relative activity on ATP, pH 5” value stood at 0.8; the “Relative activity on ATP, pH 5.5” value worked out at 0.9; the “Relative activity on ATP, pH 6” value was determined as 1.0; the “Relative activity on ATP, pH 6.5” value turned out to be 1.0. Besides, in data set [2], the “Activity on ATP … pH 5.0” value was determined as 0.05 and the “Activity on ATP … pH 6.0” value is listed as 0.10.
